According to patent US7618787B2, “Method of screening compound capable of accelerating or inhibiting apoptosis, apoptosis accelarator and apoptosis inhibitor” (Hisamitsu Pharmaceutical Co., Inc., priority 2004, dated 2009):

Columns and labels:
GST-p73 fusion proteins = target: T1, GST-p73 fusion proteins (Homo sapiens, UniProt O15350); assay: In vitro GST pull-down assay; format: binding; details: in vitro pull-down (FIG. 13)
T1 construct: made in house
T1 sequence (O15350 114-328): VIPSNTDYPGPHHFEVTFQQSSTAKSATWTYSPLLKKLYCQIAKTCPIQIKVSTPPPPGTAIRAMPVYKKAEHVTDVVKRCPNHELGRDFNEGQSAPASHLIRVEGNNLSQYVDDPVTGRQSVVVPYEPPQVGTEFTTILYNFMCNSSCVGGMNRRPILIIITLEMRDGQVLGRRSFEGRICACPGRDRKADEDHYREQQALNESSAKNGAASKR
Procedure: Whole cell lysates prepared from COS7 cells expressing FLAG-IKK-α were mixed with glutathione S-transferase (GST) or GST fusion protein and incubated with slow shaking at 4° C. for 2 hours in the presence of glutathione-Sepharose beads (Amersham Pharmacia Biotech). Then, the Sepharose beads were precipitated by brief centrifugation and vigorously washed with NETN buffer (pH 7.5; 50 mM Tris-Cl, 150 mM sodium chloride, 0.1% NP-40, and 1 mM EDTA) containing 1 mM PMSF. The proteins bound with the beads were eluted therefrom by the addition of 30 μL of 2×Laemmli SDS sample buffer, then boiled for 5 minutes, and separated with 10% SDS-PAGE. The proteins were transferred to PVDF membranes and immunoblotted with […] as described above.
To investigate whether IKK-α interacted with p73 in cultured mammal cells, whole cell lysates were prepared from transfected COS7 cells, then immunoprecipitated with an anti-FLAG or anti-HA antibody, and analyzed by immunoblot using an anti-p73 or anti-FLAG antibody, respectively. […] Likewise, HA-p73β was co-immunoprecipitated with FLAG-IKK-α (data not shown). […] To identify determinants of p73 participating in the interaction with IKK-α, several deletion mutants of p73 fused to GST were prepared and examined for their abilities to bind to FLAG-IKK-α by in-vitro pull-down assay. […]

HA-p73α = target: T2, HA-p73α (Homo sapiens, UniProt O15350); assay: Ubiquitination assay in COS7 cells; format: cell-based; details: COS7, HA-p73α and HA-ubiquitin, MG-132 (FIG. 18, 19)
T2 construct: expressed in transfected cells; host or cells: COS7
T2 sequence (O15350 1-636): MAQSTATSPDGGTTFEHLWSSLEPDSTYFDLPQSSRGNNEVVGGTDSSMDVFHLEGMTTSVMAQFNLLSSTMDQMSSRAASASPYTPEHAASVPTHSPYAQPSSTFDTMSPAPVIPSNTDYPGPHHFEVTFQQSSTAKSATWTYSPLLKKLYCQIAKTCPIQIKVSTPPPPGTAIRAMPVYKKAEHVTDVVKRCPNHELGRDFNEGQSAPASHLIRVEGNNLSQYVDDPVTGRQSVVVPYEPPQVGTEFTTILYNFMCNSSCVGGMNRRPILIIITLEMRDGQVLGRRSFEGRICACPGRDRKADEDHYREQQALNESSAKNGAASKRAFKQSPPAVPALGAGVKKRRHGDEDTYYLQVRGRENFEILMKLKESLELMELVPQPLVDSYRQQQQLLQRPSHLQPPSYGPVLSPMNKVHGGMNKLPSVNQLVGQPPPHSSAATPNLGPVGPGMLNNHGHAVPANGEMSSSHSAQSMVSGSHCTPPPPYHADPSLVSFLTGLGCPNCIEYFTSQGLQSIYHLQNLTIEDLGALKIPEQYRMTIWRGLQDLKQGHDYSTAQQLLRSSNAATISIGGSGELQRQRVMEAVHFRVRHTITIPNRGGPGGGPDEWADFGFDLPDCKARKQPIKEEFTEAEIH
Procedure: COS7 cells were transiently transfected with a constant amount of expression plasmids encoding HA-p73α and HA-Ub in the presence or absence of varying amounts of IKK-α expression plasmids. After […] from the transfection, the cells were exposed for 6 hours to a proteasome inhibitor MG-132 (final concentration: 20 μM), and lysates from the whole cells were first subjected to immunoprecipitation with an anti-p73 monoclonal antibody and then to immunoblot using an anti-HA monoclonal antibody (12CA5; Roche Molecular Biochemicals) to analyze ubiquitination levels.
As described by Lee, C.-W. et al., Oncogene 18: 4171-4181 (1999), the steady-state level of p73 was regulated at least partially by the proteolytic process through the ubiquitin-proteasome pathway. Whether IKK-α inhibited the ubiquitination of p73 was investigated. COS7 cells were transfected with expression plasmids for HA-p73α and HA-ubiquitin together with or without varying amounts of IKK-α or FLAG-IKK-β expression plasmids. After 48 hours of the transfection, lysates from the whole cells were analyzed by immunoprecipitation and immunoblot and examined for the presence of p73α containing HA-ubiquitin.

p73 = assay: Luciferase reporter assay, p73-dependent transcriptional activation in H1299 cells; format: cell-based, human
Procedure: H1299 cells deficient in p53 were seeded at a density of 5×10^4 cells/well onto a 12-well tissue culture dish and transiently transfected with 100 ng of luciferase reporter construct (which carried a p53/p73-responsive element derived from a p21^WAF1, Bax, or MDM2 promoter), 10 ng of pRL-TK Renilla luciferase cDNA, and 25 ng of given expression plasmid (p53, HA-p73α, or HA-p73β) together with or without varying amounts of IKK-α or FLAG-IKK-β expression plasmids. The total amount of DNA per transfection was kept constant (510 ng) with a pcDNA3 empty plasmid. After 48 hours from the transfection, the cells were washed twice with ice-cold PBS and suspended in passive lysis buffer (Promega). Both firefly and Renilla luciferase activities were assayed by use of dual-luciferase reporter assay system (Promega) according to the instruction. […] intensity was measured with TD-20 luminometer (Turner Design). The firefly luciferase signal was normalized based on the Renilla luciferase signal. Results obtained from at least 3 transfections were indicated by mean value±standard deviation.
To explore the functional implication of interaction between IKK-α and p73, the effect of IKK-α on p73-mediated transcriptional activation was first examined. H1299 cells deficient in p53 were transfected with a HA-p73α or HA-p73β expression plasmid and a luciferase reporter construct under the control of a p21^WAF1, Bax, or MDM2 promoter together with or without varying amounts of IKK-α expression plasmids. […] By contrast, increase in p53-responsive reporter gene activity was not induced by IKK-α (FIG. 22). To examine the specificity of p73-dependent transcriptional activation mediated by IKK-α, whether IKK-β enhanced p73 transcriptional activity to p53/p73-responsive promoters was confirmed.

B1: IKK-α: IKK-α protein, amino acid sequence SEQ ID NO: 24, expressed from plasmid; apoptosis enhancer (protein, listed as Homo sapiens)
chain: MERPPGLRPGAGGPWEMRERLGTGGFGNVCLYQHRELDLKIAIKSCRLELSTKNRERWCHEIQIMKKLNHANVVKACDVPEELNILIHDVPLLAMEYCSGGDLRKLLNKPENCCGLKESQILSLLSDIGSGIRYLHENKIIHRDLKPENIVLQDVGGKIIHKIIDLGYAKDVDQGSLCTSFVGTLQYLAPELFENKPYTATVDYWSFGTMVFECIAGYRPFLHHLQPFTWHEKIKKKDPKCIFACEEMSGEVRFSSHLPQPNSLCSLIVEPMENWLQLMLNWDPQQRGGPVDLTLKQPRCFVLMDHILNLKIVHILNMTSAKIISFLLPPDESLHSLQSRIERETGINTGSQELLSETGISLDPRKPASQCVLDGVRGCDSYMVYLFDKSKTVYEGPFASRSLSDCVNYIVQDSKIQLPIIQLRKVWAEAVHYVSGLKEDYSRLFQGQRAAMLSLLRYNANLTKMKNTLISASQQLKAKLEFFHKSIQLDLERYSEQMTYGISSEKMLKAWKEMEEKAIHYAEVGVIGYLEDQIMSLHAEIMELQKSPYGRRQGDLMESLEQRAIDLYKQLKHRPSDHSYSDSTEMVKIIVHTVQSQDRVLKELFGHLSKLLGCKQKIIDLLPKVEVALSNIKEADNTVMFMQGKRQKEIWHLLKIACTQSSARSLVGSSLEGAVTPQTSAWLPPTSAEHDHSLSCVVTPQDGETSAQMIEENLNCLGHLSTIIHEANEEQGNSMMNLDWSWLTE
GST-p73 fusion proteins
  binding to GST-p73 deletion mutants: bonded to GST-p73 (114-328) but not to other GST-fused proteins
HA-p73α
  amount of ubiquitinated p73α: decreased
p73; H1299, IKK-α alone
  luciferase activity without p73: almost no effect on luciferase activity
p73; H1299, coexpression with HA-p73α or HA-p73β (FIG. 20, 21, 23)
  p73-dependent transcriptional activation of p21WAF1, Bax, MDM2 promoter reporters: Remarkable increase in p73-dependent transcriptional activation was dose-dependently observed
p73; H1299, immunoblot (FIG. 24)
  induction of endogenous p21WAF1 mediated by p73α: remarkably up-regulated
